From patent publication US20240084009A1 (HARPOON THERAPEUTICS, published 2024)

T1: cyno CD3e (Macaca fascicularis (cynomolgus monkey), UniProt Q95LI5)
T1 construct: not described; also called cynomolgus CD3ε; cynomolgus CD3
T1 sequence (CD3 epsilon, looked up): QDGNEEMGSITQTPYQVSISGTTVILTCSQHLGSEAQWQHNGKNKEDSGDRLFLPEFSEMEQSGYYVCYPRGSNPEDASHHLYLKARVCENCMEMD


Legend:
cyno CD3e = biological target: T1, cyno CD3e; experiment: kinetic Kd determination of the expressed scFv, method not named
biotinylated hu-CD3ε = biological target: T2, biotinylated hu-CD3ε (human, UniProt P07766 23-126, limits assumed, biotinylated (site not stated)); experiment: as above
T2 construct: The construct is not described; also called biotin-CD3ε; human CD3ε
T2 sequence (P07766 23-126 limits assumed): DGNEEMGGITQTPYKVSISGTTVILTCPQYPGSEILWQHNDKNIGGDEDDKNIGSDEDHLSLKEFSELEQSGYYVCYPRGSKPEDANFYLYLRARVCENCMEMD

Binder	Kd (cyno CD3e)	koff (cyno CD3e)	kon (cyno CD3e)	Kd (biotinylated hu-CD3ε)	koff (biotinylated hu-CD3ε)	kon (biotinylated hu-CD3ε)
Anti-CD3, clone 2G5 (scFv, Expressed in Expi293 from the pcDNA3.4 His6 vector) scFv: EVQLVESGGGLVQPGGSLKLSCAASGFTFNKYALNWVRQAPGKGLEWVARIRSKYNNYATEYADSVKDRFTISRDDSKNTAYLQMNNLKTEDTAVYYCVRHGNFGNSPISYWAYWGQGTLVTVSSGGGGSGGGGSGGGGSQTVVTQEPSLTVSPGGTVTLTCGSSTGAVTSGNYPNWVQQKPGQAPRGLIGGTNFLAPGTPERFSGSLLGGKAALTLSGVQPEDEAEYYCVLWYSNRWAFGGGTKLTVLHHHHHH	115 nM	0.111 s⁻¹	964000 M⁻¹ s⁻¹	117 nM	0.115 s⁻¹	994000 M⁻¹ s⁻¹
Anti-CD3, clone 3F2 (scFv, Expressed in Expi293 from the pcDNA3.4 His6 vector) scFv: EVQLVESGGGLVQPGGSLKLSCAASGFTYNKYAMNWVRQAPGKGLEWVARIRSKYNNYATYYADEVKDRFTISRDDSKNTAYLQMNNLKTEDTAVYYCVRHGNFGNSPISYWAYWGQGTLVTVSSGGGGSGGGGSGGGGSQTVVTQEPSLTVSPGGTVTLTCGSSKGAVTSGNYPNWVQQKPGQAPRGLIGGTKELAPGTPARFSGSLLGGKAALTLSGVQPEDEAEYYCTLWYSNRWVFGGGTKLTVLHHHHHH	6.6 nM	0.00438 s⁻¹	712000 M⁻¹ s⁻¹	8 nM	0.00502 s⁻¹	704000 M⁻¹ s⁻¹
Anti-CD3, clone 6A2 (scFv, Expressed in Expi293 from the pcDNA3.4 His6 vector) scFv: EVQLVESGGGLVQPGGSLKLSCAASGFMFNKYAMNWVRQAPGKGLEWVARIRSKSNNYATYYADSVKDRFTISRDDSKNTAYLQMNNLKTEDTAVYYCVRHGNFGNSYISYWATWGQGTLVTVSSGGGGSGGGGSGGGGSQTVVTQEPSLTVSPGGTVTLTCGSSFGAVTSGNYPNWVQQKPGQAPRGLIGGTKLLAPGTPARFSGSLLGGKAALTLSGVQPEDEAEYYCVLWYSNSWVFGGGTKLTVLHHHHHH	4.9 nM	0.00222 s⁻¹	456000 M⁻¹ s⁻¹	4.7 nM	0.00248 s⁻¹	522000 M⁻¹ s⁻¹
Anti-CD3, clone 10E4 (scFv, Expressed in Expi293 from the pcDNA3.4 His6 vector) scFv: EVQLVESGGGLVQPGGSLKLSCAASGFTFNKYPMNWVRQAPGKGLEWVARIRSKYNNYATYYADSVKDRFTISRDDSKNTAYLQMNNLKNEDTAVYYCVRHGNFNNSYISYWAYWGQGTLVTVSSGGGGSGGGGSGGGGSQTVVTQEPSLTVSPGGTVTLTCGSSTGAVTKGNYPNWVQQKPGQAPRGLIGGTKMLAPGTPARFSGSLLGGKAALTLSGVQPEDEAEYYCALWYSNRWVFGGGTKLTVLHHHHHH	46.8 nM	0.0238 s⁻¹	508000 M⁻¹ s⁻¹	49.8 nM	0.026 s⁻¹	522000 M⁻¹ s⁻¹
